Usually Kd stands for a measure of binding affinity in units of concentration.

Like-named read-outs stand apart in the source and are kept apart here.

This note sets out measurements from doi:10.1101/773556.

Holding throughout (experiment): ITC
In general terms: In ITC the heat of successive injections is recorded.

Assay [1] deals with EftM^HM4 W196F (Pseudomonas aeruginosa strain PAHM4).
Assay [2] deals with EftM^HM4 W170F (Pseudomonas aeruginosa strain PAHM4).
The target in assay [3] is EF-Tu methyltransferase EftM from P. aeruginosa strain PAHM4 (EftM^HM4), wild-type (Pseudomonas aeruginosa strain PAHM4).
For assay [4] the target is unchanged. The source holds these as a separate data set.

As to “translation elongation factor EF-Tu of P. aeruginosa PAO1 (tufB), wild-type (from UniProt P09591 1-397) (natural protein)”, the fold decrease of dH against wild-type EftM^HM4 in assay [1] and in assay [2] was over 10 fold throughout. Further, the Kd was found to be 28 µM in assay [3] and 27 µM in assay [4].
